From publication PMC7486200 come the findings set out here.

For one data set, the target named is FAM122A (UniProt Q96E09 1-287). Nature of the data set: EMSA. In general terms: A gel shift assay detects complexes by their altered migration in electrophoresis.
Another data set concerns the target GATA1 (UniProt P15976 1-413). Nature of the data set: competition.

GATA1, sequence (P15976 whole entry): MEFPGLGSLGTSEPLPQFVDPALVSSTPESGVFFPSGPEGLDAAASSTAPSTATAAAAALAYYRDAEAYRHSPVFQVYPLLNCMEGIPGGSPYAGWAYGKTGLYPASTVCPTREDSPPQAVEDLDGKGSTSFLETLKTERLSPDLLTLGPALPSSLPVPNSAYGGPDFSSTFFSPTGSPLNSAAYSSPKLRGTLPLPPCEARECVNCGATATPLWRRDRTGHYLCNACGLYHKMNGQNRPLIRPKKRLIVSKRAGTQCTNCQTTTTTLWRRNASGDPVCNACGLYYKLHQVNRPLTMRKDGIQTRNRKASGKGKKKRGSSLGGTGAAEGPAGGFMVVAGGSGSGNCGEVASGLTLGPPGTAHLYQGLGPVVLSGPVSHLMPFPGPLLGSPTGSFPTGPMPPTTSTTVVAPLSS
FAM122A, sequence (Q96E09 whole entry): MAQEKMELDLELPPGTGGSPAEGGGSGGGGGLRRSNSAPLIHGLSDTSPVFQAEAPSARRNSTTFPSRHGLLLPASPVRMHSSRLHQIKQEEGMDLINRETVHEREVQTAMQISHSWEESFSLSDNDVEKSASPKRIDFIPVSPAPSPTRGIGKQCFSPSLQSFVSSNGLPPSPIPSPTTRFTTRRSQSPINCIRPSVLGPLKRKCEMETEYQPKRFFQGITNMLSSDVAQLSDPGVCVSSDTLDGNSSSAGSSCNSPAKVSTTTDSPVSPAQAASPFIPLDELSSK

B1: GATA probe, two GATA sites (dsDNA)
DNA 1: CACTTGATAACACAAAGTGATAACTCT
DNA 2: AGAGTTATCACTTTGTGTTATCAAGTG
B1: the binding result in the data set with FAM122A is “no binding”.

B2: mutant GATA competitor (dsDNA)
DNA 1: CACTTAGCGACACAAAGTAGCGACTCT
DNA 2: AGAGTCGCTACTTTGTGTCGCTAAGTG
For the molecule B2, the binding result with GATA1 is listed as “no binding”.
